Test results taken from publication PMC5094862 (Journal of the American Chemical Society, 2016).

Target: the molecule itself
Assay: SEC

| Protein | binding result |
| --- | --- |
| synthetic L-GroES (natural protein, E. coli, UniProt P0A6F9 1-97, looked up) MNIRPLHDRVIVKRKEVETKSAGGIVLTGSAAAKSTRGEVLAVGNGRILENGEVKPLDVKVGDIVIFNDGYGVKSEKIDNEEVLIMSESDILAIVEA | binds |
| recombinant GroES (natural protein, E. coli, UniProt P0A6F9 1-97, looked up) MNIRPLHDRVIVKRKEVETKSAGGIVLTGSAAAKSTRGEVLAVGNGRILENGEVKPLDVKVGDIVIFNDGYGVKSEKIDNEEVLIMSESDILAIVEA | binds |
